From PMC9170038 come the findings set out here.

Positions count from the first letter of the chain named.

For this series, the target named is MS2 coat protein, dlFG mutant (Escherichia phage MS2, UniProt P03612, del68-81insG). As to the kind of experiment: 4 mM Mg2+; no ligand; RNA-MaP array; 100 mM Tris-HCl pH 7.5, 80 mM KCl, 4 mM MgCl2, 0.1 mg/mL BSA, 1 mM DTT, 0.01 mg/mL yeast tRNA, 0.01% Tween-20; protein 1.5 nM to 3 uM; 37 C (Table S3). Conditions: chain copies: 2; label: tethered by stalled RNA polymerase.

B1: Eterna 7609491 (Same State - Tryptophan A) (ssRNA)
RNA: ACAUGAGGAUCACCCAUGUUUGUUGUUCCUCGAGGACCGGUACGGCCGCCACUCGAACGAGUGGCACGCGAGUGCGCACUCGCGU
As to B1, the Kd (in general, the constant that tells how readily two partners part at equilibrium) was found to be 12.3 nM.

B2: Eterna 9910 (Sensor v3, turn-off variant 1) (ssRNA)
RNA: GAUUAUGCAAGCUUUCGGGACAUGAGGAUCACCCAUGUUCGUCUUAUUGAUCUAGGUACGCUGACGUACCUAGAUCU
Turning to B2, binding was characterised by a dissociation constant (Kd) of 16.5 nM.

B3: Eterna 6381991 (Exclusion NG 1) (ssRNA)
RNA: AUGCUUUAUGUAGGAUAUGCAUACGGUACGUAUGCAGAAGGACAUGAGGAUCACCCAUGUAAAUUAUUAUUACAUAUCAUACAU
B3 gave a Kd of 10.9 nM.

B4: Eterna 7696080 (Exclusion - Tryptophan B) (ssRNA)
RNA: UGAUACCAGACGGCCGCCACUAGGACCGGGAGUGAUGUUCCCAAUUUAAAAUGCUCGGCCGCCACUAGGACCGGGUCUGGUAUCU
Regarding B4, the Kd is > 3000 nM.

B5: Eterna 7722704 (Same State - FMN A) (ssRNA)
RNA: GGCAGUGAUGUUGCCUAAGCAACGCAUGCAGAGGAUAUUCGUUCGGGAAGAAGGCUGCAGCGUUCUCUCGUCAGUGAUGUUGGCG
Turning to B5, the equilibrium dissociation constant (Kd) was > 3000 nM.

B6: Eterna 5789023 (Sensor v3, turn-off variant 2) (ssRNA)
RNA: ACAAGCUUUUUGUUCGUCUUAUAAAAUCCUAAGAGGAAAACAUGAGGAUCACCCAUGUAACAAAGACGGACUCAUGU
The molecule B6 returned a Kd of 13 nM.

B7: Eterna 7741440 (Same State - Theophylline A) (ssRNA)
RNA: GGAGUGAUGUUCCAUUUUUAAAUCUCCGAUACCAGUAUGGAAACAUACCCUUGGCAGCGGUAAACCGCAGAUUAGGAAACUAGUC
For B7, the Kd is > 3000 nM.

B8: Eterna 6428572 (Exclusion NG 2) (ssRNA)
RNA: GUCUCCGCUCGAGGAUAUAGCUGCAUGUAGUGUCCUGAGGCACAUGAGGAUCACCCAUGUGUAGGCUAGAAGGCGACGGACACU
The molecule B8 came in with a Kd of 11 nM.

B9: Eterna 6433398 (Small Loop Exclusion NG 3) (ssRNA)
RNA: UGAUCGAGAGAUCUUAGAUUCUGGUAGGAUAUACAUUAUAAAAGCUUUACAUGAGGAUCACCCAUGUAGAAGGACUAGAGUCUA
B9 had a Kd of 6.84 nM.

B10: Eterna 7675501 (Same State - Theophylline B) (ssRNA)
RNA: CCAUCGCUAUUCGAUACCAGUCAUAAAAUCUUUGGUUAAAUAAAGGAGUGAUGUUCCAAAGACCCUUGGCAGCGAAUAGUGAUGG
Regarding B10, the Kd was > 3000 nM.

B11: Eterna 6073973 (Exclusion 2) (ssRNA)
RNA: UAGAUGGGAGGAUAUACGUAUAUGCAGGUUCGUGUGGUGCUACAUGAGGAUCACCCAUGUAGAAGGCCCGUCUU
For B11, the Kd is 19.1 nM.

B12: Eterna 7739457 (Exclusion - Theophylline B) (ssRNA)
RNA: UUAUAUAUAUUAGAUACCAGUUUAAUGGAAACAAAUUAUGUUAUGAGUGAUGUUCAUGUAAGCCCUUGGCAGCUGGUAUGGGUUU
Take B12: the Kd is > 3000 nM.

B13: Eterna 7729933 (Exclusion - Tryptophan B) (ssRNA)
RNA: GGAUAGGACACGGCCGCCACUUGCUAGGAUACUAGCAACAUUUCCUCUCAUGAGGAUCACCCAUGAAGGACCGGGUGUCCUAUCG
B13 gave a Kd of 20.8 nM.

B14: Eterna 7610184 (Exclusion - Tryptophan B) (ssRNA)
RNA: GGAGCUACGUCGGCCGCCACUAGCGGGUAUUGCGUGUACAUGAGGAUCACCCAUGUAAUACGGCCUAGGACCGGGACGUAGCUCC
Turning to B14, the Kd amounted to 12 nM.

B15: Eterna 6439566 (Inverted Small Loop Same State NG 1) (ssRNA)
RNA: GGACAUUUACAGAAGGGCAAGCUCGAAAGCGGAGAACGCGAACGAGCUUGCAGGAUAUGUUGAACAUGAGGAUCACCCAUGUCU
Regarding B15, the Kd is 8.1 nM.

B16: Eterna 7758792 (Exclusion - Tryptophan B) (ssRNA)
RNA: UGAUACCAGACGGCCGCCACUCCCGUAAGUCAAAGACUUACGAAGAGGGUUUUUCAGUGAUGUUGGAGGACCGGGUCUGGUAUCU
Turning to B16, the Kd was > 3000 nM.

B17: Eterna 7730292 (Same State - Arginine B) (ssRNA)
RNA: UGUAUGGACUGAAGGAGCGGAAAAUAAACCUGAGGAUCACCCGGGUAAUAGGCGAAAGCCAUCCAGGUAGGUCGCAGUCCAUACU
B17 yielded a Kd of 279 nM.

B18: Eterna 6095051 (Same State NG 3) (ssRNA)
RNA: UUAACAUGAGGAUCACCCAUGUAAAGAACGGUUAAUUAAAGUGAGGAUAUACAAAAUUUUAUAUUGUAGAAGGCACUGGGUACA
As for B18, the Kd was determined as 19.5 nM.

B19: Eterna 7716400 (Same State - Theophylline B) (ssRNA)
RNA: AUUUGUUUAUGUGAUACCAGACUAAGCAGUGAUGUUGCUUUUAUUUUUGAAUUUUAAAUAGUCCCUUGGCAGCACUAUGUCUGUA
Consider B19, for which the Kd was > 3000 nM.

B20: Eterna 7673920 (Same State - Theophylline B) (ssRNA)
RNA: UGUAUGUGAUCUGAUACCAGCGUUGAUAACCUGAGGAUCACCCUGGUAAGGCGAAAGCCACGCCCUUGGCAGCAGAUCGCAUACU
B20 yielded a Kd of 193 nM.

B21: Eterna 5984275 (Exclusion 4) (ssRNA)
RNA: AUUGUGUGAGGAUAUUAGCAGUAGACGAAUGGAGUCGUGGCUGAGAAGGCACAUGAGGAUCACCCAUGUUCCUU
As for B21, the affinity, expressed as Kd, was 16.8 nM.

B22: Eterna 6055371 (Brourd's mod of Exclusion 4) (ssRNA)
RNA: GAUCGCCAUGUCAGGAUAUCUUGUAUACCCACGUUAGAGAAGGGACAUGAGGAUCACCCAUGUACCCUGGUUUU
B22 displayed a Kd of 15.4 nM.

B23: Eterna 7730917 (Exclusion - Tryptophan A) (ssRNA)
RNA: AGACUGUCUUCGGACAGUCCGGACAGCCCGCGAGGACCGGUACGGCCGCCACUCGCGUGAGGAUCACCCAUGCGAGGCUGUCCGA
The molecule B23 gave a Kd of 34.7 nM.

B24: Eterna 6441202 (Exclusion NG 1) (ssRNA)
RNA: ACAUUUUAUGCAGGAUAUUGACAUAGGAUUAAACAAGAAGGGCAUUACAUGAGGAUCACCCAUGUUUUAUUGGUAUAUAAGUUC
In turn, B24 came in with a Kd of 15.5 nM.

B25: Eterna 1038 (Exclusion - FMN A) (ssRNA)
RNA: UCACCGCCUAGUGAUGUUACGCGACUCAGAAAGGAUAUAAUCAAUCUUAGAAGGUUCACACCGUAUGGAUAUUAUCUAUCUCGUU
For the molecule B25, the Kd was > 3000 nM.

B26: Eterna 7730095 (Same State - Theophylline B) (ssRNA)
RNA: UGUAUGUGAUCUGAUACCAGUCCAACUGGUAAACCAUGAGGAUCACCCAUGGAAAAUUGGGACCCUUGGCAGCAGAUCGCAUACU
In turn, B26 returned a Kd of 310 nM.

B27: Eterna 6429522 (Inverted Exclusion NG 3) (ssRNA)
RNA: GUGGAUAGACGCCCACGUGAGACAUGAGGAUCACCCAUGUACAGAAGGUGGAGCGUUAAUGGUGCCAAGGAUAUGUACAUAAGG
As for B27, binding was characterised by a dissociation constant (Kd) of 4.92 nM.

B28: Eterna 5982897 (Exclusion 6) (ssRNA)
RNA: GCAUGCUCCGAGGAUAUCGAAGCUAAUUAUGCACGAGAAGGCGGAACAUGAGGAUCACCCAUGUGAUGCCUAAA
In turn, B28 showed a Kd of 14.4 nM.

B29: Eterna 7691377 (Same State - Tryptophan B) (ssRNA)
RNA: UAUCUAUGCUCGGCCGCCACUAGGACCGGGAGGUAACUAGUGAUGUUAGUAUCUUCGGCCGCCACUAGGACCGGGAGUGUAGAUA
Turning to B29, the Kd was > 3000 nM.

B30: Eterna 7653871 (Same State - Theophylline B) (ssRNA)
RNA: UGUAUGUGAUUUGAUACCAGACCAGCUGGUGGUGCAUGAGGAACACCCAUGCAGGUUUGGGUCCCUUGGCAGCAAAUCGCAUACU
In turn, B30 returned a Kd of 145 nM.

B31: Eterna 7653873 (Same State - Theophylline B) (ssRNA)
RNA: B30 RNA with G34C, C52G
The molecule B31 came in with a Kd of 83.2 nM.

B32: Eterna 7734762 (Same State - FMN B) (ssRNA)
RNA: UGUACCGAGUAAGGAUAUGUCGUCGAAAGACGAAAUGGAGUGAUGUUCCUUAAACUGCGAAAGCAGACAGAAGGUACUUGGUACU
In the case of B32, the Kd is > 3000 nM.

B33: Eterna 7739340 (Same State - Theophylline A) (ssRNA)
RNA: ACCAUCAAAGAUGGCCAGGACUCAACUGAUACCAGAGUGGAGACACUCCCUUGGCAGCAGGUGAGUGAUGUUCACGAGUCCUGGA
B33: the Kd was > 3000 nM.

B34: Eterna 7745160 (Same State - Arginine B) (ssRNA)
RNA: GUUAAGUCGCGAAGGAGCGCGAACUAACAACGCAGUGAUGUUGCGUUGUACGUAGUAUAAUCGCAGGUAGGUCGCGCGACAGGCC
Turning to B34, the Kd is > 3000 nM.

B35: Eterna 1619 (Same State - Theophylline A) (ssRNA)
RNA: GUGUAAGUGAUGUUUGCACACACGUCGGAUACCAGAGACUUUAGCCUCCCUUGGCAGCCGCCGGCCAUAAGAGCAAGUCGAUUUA
Take B35: the Kd is > 3000 nM.

B36: Eterna 7736465 (Same State - FMN A) (ssRNA)
RNA: UUUCUUUUCUUUUGCGAUCCUAUCCCUUAUAAGGAUAUCUAGAAAUAGAGAAGGUAUGCAGUGAUGUUGCUUGGGAUAGGAUCGC
As for B36, the Kd was > 3000 nM.

B37: Eterna 1225 (Exclusion - Tryptophan A) (ssRNA)
RNA: GGAGGCCAGGCCUGCGAAGUGAUGUUUUGACGAGGACCGGUACGGCCGCCACUCGAAUGUUCUAUCAUCGUACGAACUUCUGCGU
Turning to B37, the Kd is > 3000 nM.

B38: Eterna 7734716 (Exclusion - FMN B) (ssRNA)
RNA: GGAUAGGACACAGGAUAUGGUAGUGAUGUUACCAAACUGGUUAAACAUGUCAGAAAACUGGCAUGACCAGAAGGGUGUCCUAUCG
Turning to B38, the Kd is > 3000 nM.

B39: Eterna 6095017 (Exclusion NG 3) (ssRNA)
RNA: AAGGACUGUAAUAAUGUAGAAAUACAUGAGGAUCACCCAUGUAAGGAUAUCGUCAGGAAUACUGACGAGAAGGUACAUCAGUCC
In turn, B39 displayed a Kd of 16.5 nM.

B40: Eterna 6146924 (Exclusion NG 1) (ssRNA)
RNA: GUGACGGAUGUAGGAUAUGCUGACCAAUGGUCAGCAGAAGGACAUGAGGAUCACCCAUGUCAUCCUUAUAAUAAAUACCGUCAC
With B40, the Kd came to 13.7 nM.
